Among the data in patent CN113512118A (INST BIOPHYSICS CAS, dated 2021) are Kd values, retold here.

The target in this assay is T1, sCD146蛋白 (CD146胞外区蛋白, Sino Biological 10115-H08H-20) (human, UniProt P43121 24-559).
T1 construct: extracellular domain; also called 胞外区CD146蛋白
T1 sequence (looked up): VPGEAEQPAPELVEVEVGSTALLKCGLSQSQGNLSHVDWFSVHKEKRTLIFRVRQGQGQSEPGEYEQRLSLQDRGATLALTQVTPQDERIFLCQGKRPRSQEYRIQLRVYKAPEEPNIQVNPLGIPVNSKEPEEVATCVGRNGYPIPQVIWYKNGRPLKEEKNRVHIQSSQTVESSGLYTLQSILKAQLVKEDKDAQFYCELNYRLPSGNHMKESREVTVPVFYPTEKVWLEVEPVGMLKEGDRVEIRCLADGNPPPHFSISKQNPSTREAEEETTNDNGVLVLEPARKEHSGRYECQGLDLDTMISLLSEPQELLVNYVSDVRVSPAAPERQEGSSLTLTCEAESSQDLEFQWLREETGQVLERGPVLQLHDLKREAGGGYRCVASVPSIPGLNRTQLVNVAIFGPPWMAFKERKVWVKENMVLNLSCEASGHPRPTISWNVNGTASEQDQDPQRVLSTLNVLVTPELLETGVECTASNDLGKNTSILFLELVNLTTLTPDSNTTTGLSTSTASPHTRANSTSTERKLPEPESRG
The experiment in a line: BLI (Octet Red96), antibody on Anti-Mouse Fc Capture sensor, sCD146 at 250-3.91 nM.

B1: AA98抗体 (mouse monoclonal anti-CD146 antibody AA98) (antibody, mouse IgG2a, kappa, V domains shown)
VH: EVQLLESGAELVRPGASVKLSCKTSGYIFTNYWIHWVKNRSGNGLEWIARIYPGTDITYYNEKFKGKATLTVDKSSSSAYMLLSSLKSEDSSVYFCARSGGYWYFDVWGAGTTVTVSS
VL: ELVMTQSPASLAVSLGQRATISCRASKSVSISGYSYMHWYQQKPGQPPKLLIYLASNLESGVPARFSGSGSGTDFTLNIHPVEEEDAATYYCQHSRELPYTFGGGTKLEIKR
notes: also called 母本AA98抗体; 亲本AA98抗体
In the case of B1, the dissociation constant Kd (in general, a measure of binding affinity in units of concentration) was 1.12 nM.
